# ± gives the uncertainty stated by the source.
# Assay: self-splicing fitness, log relative to wild type (ln ratio); higher = more splicing; Tetrahymena group I intron in knt gene, E. coli kanamycin selection, DiMSum; sequences stand for … in CUCUCU…GGAGGGAAAAGUUAUCAGGCAUGCACCUGGUAGCUAGUCUUUAAACCAAUAGAUUGCAUCGGUUUAAAAGGCAAGACCGUCAAAUUGCGGGAAAGGGGUCAACAGCCGUUCAGUACCAAGUCUCAGGGGAAACUUUGAGAUGGCCUUGCAAAGGGUAUGGUAAUAAGCUGACGGACAUGGUCCUAACCACGCAGCCAAGUCCUAAGUCAACAGAUCUUCUGUUGAUAUGGAUGCAGUUCACAGACUAAAUGUCGGUCGGGGAAGAUGUAUUCUUCUCAUAAGAUAUAGUCGGACCUCUCCUUAAUGGGAGCUAGCGGAUGAAGUGAUGCAACACUGGAGCCGCUGGGAACUAAUUUGUAUGCGAAAGUAUAUUGAUUAGUUUUGGAGUACUCGUGGUCG
# How it was run: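 Colonies from six replicate transformations of E. coli BL21(DE3) were pooled and amplicon-sequenced on an Illumina HiSeq 2500. The library placed an intron with all eight P1ex-region nucleotides randomised inside the knt kanamycin-resistance gene on pET-22b(+), and cells grew overnight at 37°C or 30°C on LB agar with or without 25 μg/mL kanamycin (plus 100 μg/mL carbenicillin, 50 μM IPTG, 0.2% rhamnose). Fitness is the DiMSum error-weighted combination of wild-type-normalised replicate fold changes, kanamycin versus none.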
Sequence,self-splicing fitness (ln) (30 °C),self-splicing fitness (ln) (37 °C)
GAGAAGCAAUAUUACGCUUU,-3.35 ± 0.14,-2.76 ± 0.14
GAGAAGCAAUAUUACGGAGU,-3.2 ± 0.24,0.0737 ± 0.12
GAGAAGCAAUAUUACGGCGA,0.0811 ± 0.15,-0.777 ± 0.12
GAGAAGCAAUAUUACGGCUG,-0.733 ± 0.088,-0.161 ± 0.12
GAGAAGCAAUAUUACGGUAC,-2.92 ± 0.23,-1.54 ± 0.21
GAGAAGCAAUAUUACGGUGG,-2.14 ± 0.14,-2.93 ± 0.25
GAGAAGCAAUAUUACGUAGC,-3.47 ± 0.35,-0.876 ± 0.21
GAGAAGCAAUAUUACGUCCU,-1.59 ± 0.23,
GAGAAGCAAUAUUACGUCGG,-3.32 ± 0.19,-2.35 ± 0.24
GAGAAGCAAUAUUACGUGAC,-2.18 ± 0.12,-1.29 ± 0.17
GAGAAGCAAUAUUACGUGGC,-3.59 ± 0.17,-0.933 ± 0.11
GAGAAGCAAUAUUACGUGUU,-2.43 ± 0.098,-1.53 ± 0.14
GAGCAGCAAUAUUACGAAAG,-3.71 ± 0.33,-1.93 ± 0.22
GAGCAGCAAUAUUACGACCG,-2.42 ± 0.12,-1.27 ± 0.15
GAGCAGCAAUAUUACGACGA,-0.16 ± 0.15,0.077 ± 0.17
GAGCAGCAAUAUUACGAGUG,-2.8 ± 0.17,-1.09 ± 0.19
GAGCAGCAAUAUUACGAUGC,-1.47 ± 0.092,-0.514 ± 0.11
GAGCAGCAAUAUUACGCCGA,-1.55 ± 0.17,-0.726 ± 0.18
GAGCAGCAAUAUUACGCUGC,-3.72 ± 0.18,-3.06 ± 0.27
GAGCAGCAAUAUUACGCUUA,-0.991 ± 0.077,-0.238 ± 0.11
GAGCAGCAAUAUUACGGACA,-2.64 ± 0.15,-1.53 ± 0.12
GAGCAGCAAUAUUACGGGGC,-3.57 ± 0.21,-2.52 ± 0.25

Sequence,self-splicing fitness (ln) (30 °C),self-splicing fitness (ln) (37 °C)
GAGCAGCAAUAUUACGGGUU,-2.44 ± 0.14,-2.02 ± 0.16
GAGCAGCAAUAUUACGGUUC,-3.92 ± 0.42,-1.9 ± 0.38
GAGCAGCAAUAUUACGUCCU,-0.165 ± 0.12,-0.134 ± 0.16
GAGCAGCAAUAUUACGUGGC,-3.71 ± 0.27,-1.63 ± 0.14
GAGCAGCAAUAUUACGUUAU,-1.77 ± 0.087,-1.3 ± 0.12
GAGGAGCAAUAUUACGAAAU,-3 ± 0.4,-1.14 ± 0.23
GAGGAGCAAUAUUACGAAUA,-3.68 ± 0.4,-3.08 ± 0.38
GAGGAGCAAUAUUACGAGAA,-1.98 ± 0.41,-2.44 ± 0.33
GAGGAGCAAUAUUACGAUGC,-2.85 ± 0.26,-1.21 ± 0.21
GAGGAGCAAUAUUACGAUUC,-3.4 ± 0.27,-1.65 ± 0.22
GAGGAGCAAUAUUACGCAUA,-1.86 ± 0.35,
GAGGAGCAAUAUUACGCCGA,-1.95 ± 0.33,-1.77 ± 0.28
GAGGAGCAAUAUUACGGACC,,-0.0508 ± 0.35
GAGGAGCAAUAUUACGGAUA,-3.62 ± 0.28,-2.33 ± 0.37
GAGGAGCAAUAUUACGGCCU,-1.99 ± 0.38,
GAGGAGCAAUAUUACGGCUG,-1.48 ± 0.15,-1.88 ± 0.31
GAGGAGCAAUAUUACGGGUC,-2.98 ± 0.17,-3.24 ± 0.32
GAGGAGCAAUAUUACGGUAC,,-2.14 ± 0.26
GAGGAGCAAUAUUACGGUGA,-3.55 ± 0.37,-1.49 ± 0.28
GAGGAGCAAUAUUACGUAUA,,-2.74 ± 0.4
GAGGAGCAAUAUUACGUAUU,-3.47 ± 0.32,0.0104 ± 0.25
GAGGAGCAAUAUUACGUGGC,-3.34 ± 0.24,
